From article PMC7041945, “Misfolded proteins bind and activate death receptor 5 to trigger apoptosis during unresolved endoplasmic reticulum stress” (eLife, 2020)

System: CHOP, BiP, and DR5 mRNA in HCT116 cells
Test: qPCR of UPR target transcripts (CHOP, BiP, DR5)
Format: cell-based, Homo sapiens
Details: for avg. fold induction relative to empty traffo, BiP / avg. fold induction relative to empty traffo, CHOP / avg. fold induction relative to empty traffo, DR5 total: norm to GAPDH; for 2^-(deltaCq) BiP / 2^-(deltaCq) CHOP / 2^-(deltaCq) DR5 total: vs GAPDH
Method: Cells were grown in 6-well plates and harvested with 0.5 ml of TRIzol reagent (Life Technologies) per manufacturer’s protocol to extract RNA. For cDNA synthesis, 500 ng of total RNA was reverse transcribed with 2 μl of the SuperScript VILO master mix (Life Technologies # 11755050) in a total reaction volume of 10 μl following the manufacturer’s protocol for reaction temperature and duration. The reverse transcription product was diluted to 200 μl with 10 mM Tris-HCl pH 8.2 and used at 1:100 dilution for subsequent RT-PCR reactions.
PCR samples were prepared as described by manufacturer’s protocols from iQ SYBR Green Supermix (BioRad #17088800).
For each experiment, qRT-PCR reactions were set up in triplicate and run using a CFX96 Real Time System (Bio-Rad). Quantitation cycles were determined with CFX Manager 3.0 software (Bio-Rad) and then normalized to GAPDH as an internal control.

[1] = HCT116, pRK CHOP 31 ng, Sheet1, replicate 1

B1: pRK CHOP (protein, UniProt P35638 1-169, looked up)
DNA damage-inducible …: MAAESLPFSFGTLSSWELEAWYEDLQEVLSSDENGGTYVSPPGNEEEESKIFTTLDPASLAWLTEEEPEPAEVTSTSQSPHSPDSSQSSLAQEEEEEDQGRTRKRKQSGHSPARAGKQRMKEKEQENERKVAQLAEENERLKQEIERLTREVEATRRALIDRMVNLHQA
modifications: expression plasmid
avg. fold induction relative to empty traffo, BiP (HCT116, 31 ng): 0.2997 fold
avg. fold induction relative to empty traffo, CHOP (HCT116, 31 ng): 18.7911 fold
fold induction relative to empty traffo, BiP (HCT116, 31 ng, replicate 1): 0.28 fold
fold induction relative to empty traffo, CHOP (HCT116, 31 ng, replicate 1): 16.3851 fold
fold induction relative to empty traffo, DR5 total (HCT116, 31 ng, replicate 1): 0.9029 fold
fold induction relative to empty traffo, BiP (HCT116, 31 ng, replicate 2): 0.3243 fold
fold induction relative to empty traffo, CHOP (HCT116, 31 ng, replicate 2): 19.1521 fold
fold induction relative to empty traffo, DR5 total (HCT116, 31 ng, replicate 2): 0.9212 fold
fold induction relative to empty traffo, BiP (HCT116, 31 ng, replicate 3): 0.2949 fold
fold induction relative to empty traffo, CHOP (HCT116, 31 ng, replicate 3): 20.8362 fold
fold induction relative to empty traffo, DR5 total (HCT116, 31 ng, replicate 3): 2.023 fold
2^-(deltaCq) BiP (HCT116, 31 ng, replicate 1): 0.02437
2^-(deltaCq) CHOP (HCT116, 31 ng, replicate 1): 0.1729
2^-(deltaCq) DR5 total (HCT116, 31 ng, replicate 1): 0.01464
2^-(deltaCq) BiP (HCT116, 31 ng, replicate 2): 0.02822
2^-(deltaCq) CHOP (HCT116, 31 ng, replicate 2): 0.2021
2^-(deltaCq) DR5 total (HCT116, 31 ng, replicate 2): 0.01494
2^-(deltaCq) BiP (HCT116, 31 ng, replicate 3): 0.02567
2^-(deltaCq) CHOP (HCT116, 31 ng, replicate 3): 0.2199
2^-(deltaCq) DR5 total (HCT116, 31 ng, replicate 3): 0.0328
avg. fold induction relative to empty traffo, BiP (HCT116, 62 ng): 0.334 fold
avg. fold induction relative to empty traffo, CHOP (HCT116, 62 ng): 50.7204 fold
avg. fold induction relative to empty traffo, DR5 total (HCT116, 62 ng): 0.954 fold
fold induction relative to empty traffo, BiP (HCT116, 62 ng, replicate 1): 0.3561 fold
fold induction relative to empty traffo, CHOP (HCT116, 62 ng, replicate 1): 46.9347 fold
fold induction relative to empty traffo, DR5 total (HCT116, 62 ng, replicate 1): 0.9555 fold
fold induction relative to empty traffo, BiP (HCT116, 62 ng, replicate 2): 0.3335 fold
fold induction relative to empty traffo, CHOP (HCT116, 62 ng, replicate 2): 49.2833 fold
fold induction relative to empty traffo, DR5 total (HCT116, 62 ng, replicate 2): 1.032 fold
fold induction relative to empty traffo, BiP (HCT116, 62 ng, replicate 3): 0.3124 fold
fold induction relative to empty traffo, CHOP (HCT116, 62 ng, replicate 3): 55.9433 fold
fold induction relative to empty traffo, DR5 total (HCT116, 62 ng, replicate 3): 0.8745 fold
2^-(deltaCq) BiP (HCT116, 62 ng, replicate 1): 0.031
2^-(deltaCq) CHOP (HCT116, 62 ng, replicate 1): 0.4954
2^-(deltaCq) DR5 total (HCT116, 62 ng, replicate 1): 0.01549
2^-(deltaCq) BiP (HCT116, 62 ng, replicate 2): 0.02903
2^-(deltaCq) CHOP (HCT116, 62 ng, replicate 2): 0.5202
2^-(deltaCq) DR5 total (HCT116, 62 ng, replicate 2): 0.01673
2^-(deltaCq) BiP (HCT116, 62 ng, replicate 3): 0.02719
2^-(deltaCq) CHOP (HCT116, 62 ng, replicate 3): 0.5905
2^-(deltaCq) DR5 total (HCT116, 62 ng, replicate 3): 0.01418
avg. fold induction relative to empty traffo, BiP (HCT116, 125 ng): 0.5304 fold
avg. fold induction relative to empty traffo, CHOP (HCT116, 125 ng): 220.701 fold
avg. fold induction relative to empty traffo, DR5 total (HCT116, 125 ng): 1.17 fold
fold induction relative to empty traffo, BiP (HCT116, 125 ng, replicate 1): 0.6342 fold
fold induction relative to empty traffo, CHOP (HCT116, 125 ng, replicate 1): 230.561 fold
fold induction relative to empty traffo, DR5 total (HCT116, 125 ng, replicate 1): 1.242 fold
fold induction relative to empty traffo, BiP (HCT116, 125 ng, replicate 2): 0.5274 fold
fold induction relative to empty traffo, CHOP (HCT116, 125 ng, replicate 2): 173.762 fold
fold induction relative to empty traffo, DR5 total (HCT116, 125 ng, replicate 2): 1.206 fold
fold induction relative to empty traffo, BiP (HCT116, 125 ng, replicate 3): 0.4295 fold
fold induction relative to empty traffo, CHOP (HCT116, 125 ng, replicate 3): 257.78 fold
fold induction relative to empty traffo, DR5 total (HCT116, 125 ng, replicate 3): 1.064 fold
2^-(deltaCq) BiP (HCT116, 125 ng, replicate 1): 0.0552
2^-(deltaCq) CHOP (HCT116, 125 ng, replicate 1): 2.434
2^-(deltaCq) DR5 total (HCT116, 125 ng, replicate 1): 0.02013
2^-(deltaCq) BiP (HCT116, 125 ng, replicate 2): 0.04591
2^-(deltaCq) CHOP (HCT116, 125 ng, replicate 2): 1.834
2^-(deltaCq) DR5 total (HCT116, 125 ng, replicate 2): 0.01955
2^-(deltaCq) BiP (HCT116, 125 ng, replicate 3): 0.03739
2^-(deltaCq) CHOP (HCT116, 125 ng, replicate 3): 2.7208
2^-(deltaCq) DR5 total (HCT116, 125 ng, replicate 3): 0.01725
avg. fold induction relative to empty traffo, BiP (HCT116, 250 ng): 0.5014 fold
avg. fold induction relative to empty traffo, CHOP (HCT116, 250 ng): 408.627 fold
avg. fold induction relative to empty traffo, DR5 total (HCT116, 250 ng): 0.9069 fold
fold induction relative to empty traffo, BiP (HCT116, 250 ng, replicate 1): 0.6408 fold
fold induction relative to empty traffo, CHOP (HCT116, 250 ng, replicate 1): 391.947 fold
fold induction relative to empty traffo, DR5 total (HCT116, 250 ng, replicate 1): 0.8794 fold
fold induction relative to empty traffo, BiP (HCT116, 250 ng, replicate 2): 0.4446 fold
fold induction relative to empty traffo, CHOP (HCT116, 250 ng, replicate 2): 418.188 fold
fold induction relative to empty traffo, DR5 total (HCT116, 250 ng, replicate 2): 0.9861 fold
fold induction relative to empty traffo, BiP (HCT116, 250 ng, replicate 3): 0.4188 fold
fold induction relative to empty traffo, CHOP (HCT116, 250 ng, replicate 3): 415.746 fold
fold induction relative to empty traffo, DR5 total (HCT116, 250 ng, replicate 3): 0.8551 fold
2^-(deltaCq) BiP (HCT116, 250 ng, replicate 1): 0.05578
2^-(deltaCq) CHOP (HCT116, 250 ng, replicate 1): 4.1369
2^-(deltaCq) DR5 total (HCT116, 250 ng, replicate 1): 0.01426
2^-(deltaCq) BiP (HCT116, 250 ng, replicate 2): 0.0387
2^-(deltaCq) CHOP (HCT116, 250 ng, replicate 2): 4.414
2^-(deltaCq) DR5 total (HCT116, 250 ng, replicate 2): 0.01599
2^-(deltaCq) BiP (HCT116, 250 ng, replicate 3): 0.03645
2^-(deltaCq) CHOP (HCT116, 250 ng, replicate 3): 4.3881
2^-(deltaCq) DR5 total (HCT116, 250 ng, replicate 3): 0.01387
avg. fold induction relative to empty traffo, BiP (HCT116, 500 ng): 0.5375 fold
avg. fold induction relative to empty traffo, CHOP (HCT116, 500 ng): 1484.73 fold
avg. fold induction relative to empty traffo, DR5 total (HCT116, 500 ng): 1.792 fold
fold induction relative to empty traffo, BiP (HCT116, 500 ng, replicate 1): 0.5213 fold
fold induction relative to empty traffo, CHOP (HCT116, 500 ng, replicate 1): 1691.32 fold
fold induction relative to empty traffo, DR5 total (HCT116, 500 ng, replicate 1): 1.92 fold
fold induction relative to empty traffo, BiP (HCT116, 500 ng, replicate 2): 0.6638 fold
fold induction relative to empty traffo, CHOP (HCT116, 500 ng, replicate 2): 1384.67 fold
fold induction relative to empty traffo, DR5 total (HCT116, 500 ng, replicate 2): 1.724 fold
fold induction relative to empty traffo, BiP (HCT116, 500 ng, replicate 3): 0.4274 fold
fold induction relative to empty traffo, CHOP (HCT116, 500 ng, replicate 3): 1378.19 fold
fold induction relative to empty traffo, DR5 total (HCT116, 500 ng, replicate 3): 1.731 fold
2^-(deltaCq) BiP (HCT116, 500 ng, replicate 1): 0.04537
2^-(deltaCq) CHOP (HCT116, 500 ng, replicate 1): 17.8515
2^-(deltaCq) DR5 total (HCT116, 500 ng, replicate 1): 0.03114
2^-(deltaCq) BiP (HCT116, 500 ng, replicate 2): 0.05778
2^-(deltaCq) CHOP (HCT116, 500 ng, replicate 2): 14.6148
2^-(deltaCq) DR5 total (HCT116, 500 ng, replicate 2): 0.02796
2^-(deltaCq) BiP (HCT116, 500 ng, replicate 3): 0.0372
2^-(deltaCq) CHOP (HCT116, 500 ng, replicate 3): 14.5464
2^-(deltaCq) DR5 total (HCT116, 500 ng, replicate 3): 0.02807
CHOP (qPCR CHOP, Sheet1) [1]: 16.3851
DR5 (qPCR CHOP, Sheet1) [1]: 0.9029
GADD34 (qPCR CHOP, Sheet1) [1]: 0.958
